Results as given in patent publication US20220064331A1 (Genentech, published 2022).
Changes are numbered by the printed parent chain.

T1: mouse KLB (mouse, UniProt Q99N32 53-990)
T1 construct: expressed from KLB cDNA on HEK293T cells and read by FACS; also called msKLB
T1 sequence: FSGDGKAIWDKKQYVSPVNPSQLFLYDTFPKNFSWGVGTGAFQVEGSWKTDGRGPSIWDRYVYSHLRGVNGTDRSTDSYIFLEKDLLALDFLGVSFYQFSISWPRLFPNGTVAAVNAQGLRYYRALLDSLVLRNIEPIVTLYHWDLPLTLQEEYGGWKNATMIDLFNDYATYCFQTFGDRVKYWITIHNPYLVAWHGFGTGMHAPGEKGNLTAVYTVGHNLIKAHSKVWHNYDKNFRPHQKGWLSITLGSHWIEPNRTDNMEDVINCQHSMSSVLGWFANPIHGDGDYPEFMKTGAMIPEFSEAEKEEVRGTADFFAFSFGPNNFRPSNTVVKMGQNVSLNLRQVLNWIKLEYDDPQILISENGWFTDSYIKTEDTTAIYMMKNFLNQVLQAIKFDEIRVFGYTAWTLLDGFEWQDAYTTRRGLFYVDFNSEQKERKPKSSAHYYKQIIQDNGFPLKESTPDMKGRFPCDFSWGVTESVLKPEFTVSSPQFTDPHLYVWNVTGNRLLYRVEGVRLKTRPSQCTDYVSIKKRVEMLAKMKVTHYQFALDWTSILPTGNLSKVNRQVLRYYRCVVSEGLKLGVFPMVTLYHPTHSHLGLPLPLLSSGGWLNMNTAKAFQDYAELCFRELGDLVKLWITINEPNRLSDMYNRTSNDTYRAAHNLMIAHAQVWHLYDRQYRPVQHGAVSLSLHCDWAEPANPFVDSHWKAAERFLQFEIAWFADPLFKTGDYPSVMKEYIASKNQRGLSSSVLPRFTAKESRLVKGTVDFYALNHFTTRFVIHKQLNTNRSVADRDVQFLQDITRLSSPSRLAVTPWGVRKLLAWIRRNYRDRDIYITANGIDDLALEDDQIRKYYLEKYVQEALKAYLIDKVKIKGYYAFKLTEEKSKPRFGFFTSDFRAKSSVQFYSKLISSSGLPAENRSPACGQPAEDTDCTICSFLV

T2: rabbit KLB (+N-ter FLAG) (rabbit)
T2 construct: expressed from KLB cDNA on HEK293T cells and read by FACS
T2 chain: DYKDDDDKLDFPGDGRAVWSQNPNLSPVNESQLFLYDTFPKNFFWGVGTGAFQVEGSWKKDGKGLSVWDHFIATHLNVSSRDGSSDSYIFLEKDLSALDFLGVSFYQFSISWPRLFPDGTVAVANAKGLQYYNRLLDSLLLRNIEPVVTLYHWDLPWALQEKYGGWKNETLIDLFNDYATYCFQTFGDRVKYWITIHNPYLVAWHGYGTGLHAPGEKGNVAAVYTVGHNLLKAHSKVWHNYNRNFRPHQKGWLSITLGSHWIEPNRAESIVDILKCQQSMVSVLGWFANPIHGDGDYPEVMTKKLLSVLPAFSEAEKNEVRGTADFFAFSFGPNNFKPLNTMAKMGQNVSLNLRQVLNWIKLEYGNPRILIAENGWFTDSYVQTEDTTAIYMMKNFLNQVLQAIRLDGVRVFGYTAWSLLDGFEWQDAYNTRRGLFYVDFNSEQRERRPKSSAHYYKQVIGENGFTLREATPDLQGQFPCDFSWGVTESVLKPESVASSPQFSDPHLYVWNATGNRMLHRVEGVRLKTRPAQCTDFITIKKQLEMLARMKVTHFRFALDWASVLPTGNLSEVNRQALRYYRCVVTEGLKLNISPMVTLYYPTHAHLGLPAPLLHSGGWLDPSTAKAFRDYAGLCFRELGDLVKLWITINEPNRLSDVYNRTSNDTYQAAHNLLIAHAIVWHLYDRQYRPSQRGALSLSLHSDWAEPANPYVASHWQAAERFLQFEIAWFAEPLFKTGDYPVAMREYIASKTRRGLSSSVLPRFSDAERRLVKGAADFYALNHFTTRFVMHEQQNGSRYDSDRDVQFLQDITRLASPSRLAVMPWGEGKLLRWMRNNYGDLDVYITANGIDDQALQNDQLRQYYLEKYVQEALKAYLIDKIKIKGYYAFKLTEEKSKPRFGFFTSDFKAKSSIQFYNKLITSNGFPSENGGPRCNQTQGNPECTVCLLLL

T3: cynomolgus monkey KLB (+N-ter FLAG) (cynomolgus monkey, UniProt Q86Z14 53-991 (human entry))
T3 construct: expressed from KLB cDNA on HEK293T cells and read by FACS; also called Cyno KLB
T3 chain: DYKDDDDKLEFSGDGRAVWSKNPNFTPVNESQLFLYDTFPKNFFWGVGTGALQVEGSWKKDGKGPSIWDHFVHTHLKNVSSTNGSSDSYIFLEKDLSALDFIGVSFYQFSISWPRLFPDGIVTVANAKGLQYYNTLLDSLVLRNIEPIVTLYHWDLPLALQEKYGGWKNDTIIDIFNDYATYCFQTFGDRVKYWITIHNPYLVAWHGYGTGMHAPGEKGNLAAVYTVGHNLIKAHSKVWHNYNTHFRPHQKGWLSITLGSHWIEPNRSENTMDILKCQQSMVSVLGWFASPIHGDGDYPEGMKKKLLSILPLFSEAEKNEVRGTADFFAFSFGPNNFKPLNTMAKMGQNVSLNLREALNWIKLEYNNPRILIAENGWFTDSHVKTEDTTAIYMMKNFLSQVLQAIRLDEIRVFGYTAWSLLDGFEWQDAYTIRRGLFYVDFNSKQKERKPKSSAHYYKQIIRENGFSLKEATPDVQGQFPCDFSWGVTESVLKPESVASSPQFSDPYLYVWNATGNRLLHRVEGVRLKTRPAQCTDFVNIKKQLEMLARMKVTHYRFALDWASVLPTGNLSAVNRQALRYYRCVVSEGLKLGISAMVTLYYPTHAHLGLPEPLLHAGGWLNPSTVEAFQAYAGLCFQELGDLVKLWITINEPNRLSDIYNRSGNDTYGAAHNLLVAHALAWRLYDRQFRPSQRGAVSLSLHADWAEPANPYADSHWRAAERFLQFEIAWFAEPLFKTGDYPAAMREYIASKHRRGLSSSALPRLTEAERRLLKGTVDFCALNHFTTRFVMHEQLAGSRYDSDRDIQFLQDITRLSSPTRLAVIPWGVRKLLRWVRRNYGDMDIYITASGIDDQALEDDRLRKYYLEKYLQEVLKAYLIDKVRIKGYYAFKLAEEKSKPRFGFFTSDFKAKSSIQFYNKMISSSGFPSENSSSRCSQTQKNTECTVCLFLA

B1: 5F8 (antibody, V domains shown)
VH: EVQLQQSGTELVRPGASVKLSCTSSDFNIKDTYIHWVKQRPEQGLDWLGRIDPANGNTKYDPKFQGKAAMTSDTSSNTAYLRLSSLTSEDTAVYYCASSGNYGAMDYWGQGTSVTVSS
VL: ESVLTQSPALMSASLGEKVTMTCRASSSVNHMYWYQQKSDASPKLWIYYTSTLAPGVPARFSGSGSGNSYSLTISSMEGEDAATYYCQQFTISPSMYTFGGGTKLEIK
notes: murine hybridoma-derived anti-KLB antibody
B2: 8H7 (antibody, V domains shown)
VH: QVQLQQPGAEIVKPGASVRLSCKASGYSFTSYWIHWVKQRPGQGLEWIGEIDPSVSNSNYNQKFKGKATLTADKSSSTAYMQLSGLTSEDSAVYFCVRLGVMVYGSSPFWFAYWGQGTLVTVSA
VL: DIVMTQSQKFMSTSVGDRVSITCKASQFVSDAVAWYQQKPGQSPKLLICSASYRYTGVPDRFTGSGSGTDFTFTISSVRTEDLAVYYCQQHYIVPYTFGGGTTLEIE
notes: as for B1
B3: 24A1 (antibody, V domains shown)
VH: QVQLKQSGAELVRPGTSVTLSCKASGYTFTDYEMHWMKQTPVYGLEWIGAIWPENADSVYNQKFKGKVTLTADKSSSTAYMDLRSLTSEDSAVYYCTREGGNYWGQGTTLTVSS
VL: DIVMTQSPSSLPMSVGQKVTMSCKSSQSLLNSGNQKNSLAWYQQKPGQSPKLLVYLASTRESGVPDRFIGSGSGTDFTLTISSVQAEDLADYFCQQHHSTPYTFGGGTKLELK
notes: as for B1
B4: 14C6 (antibody, V domains shown)
VH: QIQLQQSGAELMKPGASVRMSCKASGYTFSSYWIEWVKQRSGHGLEWIGEIFPGGGSTIYNENFRDKATFTADTSSNTAYMQLSSLTSEDSAVYFCARRGYYDAAWFDYWGQGTLVTVSA
VL: QIVLTQSPAIMSASPGERVTLTCSASSSLSSSYLYWYQQKPGSSPKLWIYGASNLASGVPGRFSGSGSGTSYSLTISSMEAEDAASYFCHQWSSYPLTFGSGTKLELK
notes: as for B1
B5: 12B8 (antibody, V domains shown)
VH: QIQLVQSGPELKKPGETAKISCKASGYAFSNYGMNWVKQAPGKDLKWMGWIDTDTGEATYTDDFKGRFVFSLETSASTAYLQINNLKNEDMATYFCAREEYGLFGFPYWGHGTLVTVSA
VL: DIQMTQSSSSFSVSLGDRVTITCKASEDIYNRLAWYQQKPGSAPRLLISAATSLETGVPSRFSGSGSGKDYTLSITSLQTEDVATYYCQQYWSNPLTFGAGTKLEIK
notes: as for B1
B6: 8E1 (antibody, V domains shown)
VH: EVQLQQSGAELVKPGASVKLSCTAADFNIKDTYMHWVKQRPEQGLEWIGRIDPSNGNAKYDPKFQGKASITADSSSNTAYLHLSSLTSEDTAVYYCASRALGNGYALGYWGQGTSVTVSS
VL: DIQMTQSSSYLSVSLGGSVTITCKASDHINNWLAWYQQKPGNAPRLLIYGTTNLETGVPSRFSGSGSGRDYILSITSLQSEDVASYYCQQYWNTPFTFGSGTKLEIK
notes: as for B1
B7: 25F7 (antibody, V domains shown)
VH: EVQLQQSGAELLKPGASVRLSCTASGFNIQDTFTHWVRQRPEQGLEWIGRIDPSNGNTKYDPKFQGKAKILADTSSNTAYLQLIGLTSEDTAVYYCASRALGNGYAMDYWGQGTSVTVSS
VL: B6 VL with S18R, Y49S, T51A, T52S, V58I, R69K, I72T, S74T, S80T, S85T
notes: as for B1
B8: 8C5 (antibody, V domains shown)
VH: QVQLKQSGPGLVQPSQSLSVACTVSDFSLTTYGVHWVRQSPGKGLEWLGVIWSGGSTDYNAAFISRLTISKDNSKSQVFFKMNSLQTTDTAIYYCARDYGSTYVDAIDYWGQGTSVTVSS
VL: DIVLTQSPTSLAVSLGQRATISCRASESVESYGNRYMTWYQQKPGQPPKLLIYRAANLQSGIPARFSGSGSRTDFTLTIDPVEADDVATYYCQQSNEDPWTFGGGTKVEIK
notes: murine hybridoma-derived anti-KLB antibody; also called KLBmAb1
B9: 12A11 (antibody, V domains shown)
VH: EVKFLESGGGLVQPGGSLRLSCAVSGIDFSRYWMSWVRQAPGKGLEWIGEISPDSSTINYTPSLKDKFVISRDNAKNTLYLQMSKVRSADTALYYCARPSPALDYWGQGTLVTVSA
VL: DIVMTQSPATLSVTPGDRVSLSCRASQSISDYVYWYQQKSHESPRLLIIYASQSISGIPSRFSGSGSGSDFTLSINSVEPEDVGVYYCQNGHNFPYTFGGGTKLEIK
notes: murine hybridoma-derived anti-KLB antibody; also called KLBmAb2
B10: 21H3 (antibody, V domains shown)
VH: B2 VH
VL: B2 VL
notes: as for B1

Experiments:
Experiment in all cases: FACS on transfected HEK293T cells
mouse KLB = target: T1, mouse KLB
Protocol: (§1) Species cross reactivity of the disclosed anti-KLB antibodies were analyzed by FACS analysis using KLB cDNA from mouse, rat, rabbit, cynomolgus monkey and rhesus monkey cloned into pRK mammalian expression vectors transiently transfected into HEK293T cells. The KLB extracellular domain polypeptide sequences that were expressed are as follows: […]

rabbit KLB (+N-ter FLAG) = target: T2, rabbit KLB (+N-ter FLAG)
Protocol: as §1

[1] = target: T3, cynomolgus monkey KLB (+N-ter FLAG)
Protocol: as §1

Row | Binder | binding result (mouse KLB) | binding result (rabbit KLB (+N-ter FLAG)) | binding result [1]
1 | B1 | no binding | binds | binds
2 | B2 |  | binds | binds
3 | B3 | binds | binds | binds
4 | B4 | binds | binds | binds
5 | B5 | no binding | binds | binds
6 | B6 | no binding | binds | binds
7 | B7 | no binding |  | binds
8 | B8 | binds | no binding | binds
9 | B9 |  | binds | binds
10 | B10 |  | binds | binds
